Assays:
Experiment in all cases: cross-linking; XL-MS, 2 mM BS3 on ice 2 h, purified TRiC with associated tubulin after 1 mM ATP, 5 mM MgCl2, 5 mM Al(NO3)3, 30 mM NaF (ATP-AlFx) 1 h 37 °C
Details in all cases: both partners purified
CCT8 = molecular target: T1, CCT8 (human, UniProt P50990 1-548)
T1 construct: CCT8 subunit of human TRiC/CCT, endogenous; stood in the assays as a subunit of the whole TRiC complex; also called TRiC subunit CCT8; CCT8’ (copy in the trans ring); source: endogenous, HEK293F cells, purified as a subunit of TRiC
T1 sequence (looked up): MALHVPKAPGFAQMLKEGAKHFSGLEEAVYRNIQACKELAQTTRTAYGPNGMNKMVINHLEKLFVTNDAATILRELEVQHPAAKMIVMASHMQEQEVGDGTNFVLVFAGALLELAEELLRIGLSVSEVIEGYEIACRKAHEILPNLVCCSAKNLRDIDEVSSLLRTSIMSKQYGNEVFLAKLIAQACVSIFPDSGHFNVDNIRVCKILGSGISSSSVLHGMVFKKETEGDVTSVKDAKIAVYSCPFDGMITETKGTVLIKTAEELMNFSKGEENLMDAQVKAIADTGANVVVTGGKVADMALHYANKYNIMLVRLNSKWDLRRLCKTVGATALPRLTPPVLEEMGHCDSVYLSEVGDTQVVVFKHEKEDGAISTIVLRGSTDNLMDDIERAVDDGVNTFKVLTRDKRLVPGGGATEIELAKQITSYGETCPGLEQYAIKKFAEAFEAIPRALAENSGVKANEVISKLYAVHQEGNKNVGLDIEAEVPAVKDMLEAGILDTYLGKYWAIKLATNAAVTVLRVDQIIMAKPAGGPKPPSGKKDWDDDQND

CCT3 = molecular target: T2, CCT3 (human, UniProt P49368 1-545)
T2 construct: CCT3 subunit of human TRiC/CCT, endogenous; stood in the assays as a subunit of the whole TRiC complex; also called TRiC subunit CCT3; source: endogenous, HEK293F cells, purified as a subunit of TRiC
T2 sequence (looked up): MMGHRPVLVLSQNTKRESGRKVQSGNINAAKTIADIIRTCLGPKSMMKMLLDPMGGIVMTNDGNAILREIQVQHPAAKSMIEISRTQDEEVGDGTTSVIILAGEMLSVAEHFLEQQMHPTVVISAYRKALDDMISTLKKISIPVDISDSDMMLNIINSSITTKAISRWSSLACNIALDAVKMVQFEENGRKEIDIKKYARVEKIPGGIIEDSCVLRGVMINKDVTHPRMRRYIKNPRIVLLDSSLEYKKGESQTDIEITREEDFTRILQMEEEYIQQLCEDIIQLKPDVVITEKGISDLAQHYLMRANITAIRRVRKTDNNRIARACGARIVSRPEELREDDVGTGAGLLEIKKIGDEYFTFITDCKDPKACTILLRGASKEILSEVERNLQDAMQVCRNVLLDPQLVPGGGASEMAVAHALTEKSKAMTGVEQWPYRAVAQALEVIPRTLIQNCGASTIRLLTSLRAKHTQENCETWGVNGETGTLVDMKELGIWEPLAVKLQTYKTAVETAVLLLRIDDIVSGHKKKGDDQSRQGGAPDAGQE

CCT4 = molecular target: T3, CCT4 (human, UniProt P50991 1-539)
T3 construct: CCT4 subunit of human TRiC/CCT, endogenous; stood in the assays as a subunit of the whole TRiC complex; also called TRiC subunit CCT4; source: endogenous, HEK293F cells, purified as a subunit of TRiC
T3 sequence (looked up): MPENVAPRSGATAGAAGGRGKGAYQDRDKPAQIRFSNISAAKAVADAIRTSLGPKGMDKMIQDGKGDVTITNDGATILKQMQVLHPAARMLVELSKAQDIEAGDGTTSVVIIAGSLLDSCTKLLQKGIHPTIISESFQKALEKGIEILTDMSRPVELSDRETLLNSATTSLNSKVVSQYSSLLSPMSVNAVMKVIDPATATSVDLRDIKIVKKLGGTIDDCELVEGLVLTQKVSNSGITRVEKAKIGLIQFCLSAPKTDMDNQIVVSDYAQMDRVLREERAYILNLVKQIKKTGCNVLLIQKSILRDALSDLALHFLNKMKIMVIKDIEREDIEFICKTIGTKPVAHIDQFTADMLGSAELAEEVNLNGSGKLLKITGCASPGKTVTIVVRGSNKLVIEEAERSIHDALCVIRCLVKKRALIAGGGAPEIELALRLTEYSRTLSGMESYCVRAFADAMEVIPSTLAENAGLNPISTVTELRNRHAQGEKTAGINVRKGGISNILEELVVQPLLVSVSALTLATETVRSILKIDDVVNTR

CCT5 = molecular target: T4, CCT5 (human, UniProt P48643 1-541)
T4 construct: CCT5 subunit of human TRiC/CCT, endogenous; stood in the assays as a subunit of the whole TRiC complex; also called TRiC subunit CCT5; source: endogenous, HEK293F cells, purified as a subunit of TRiC

CCT7 = molecular target: T5, CCT7 (human, UniProt Q99832 1-543)
T5 construct: CCT7 subunit of human TRiC/CCT, endogenous; stood in the assays as a subunit of the whole TRiC complex; also called TRiC subunit CCT7; source: endogenous, HEK293F cells, purified as a subunit of TRiC
T5 sequence (looked up): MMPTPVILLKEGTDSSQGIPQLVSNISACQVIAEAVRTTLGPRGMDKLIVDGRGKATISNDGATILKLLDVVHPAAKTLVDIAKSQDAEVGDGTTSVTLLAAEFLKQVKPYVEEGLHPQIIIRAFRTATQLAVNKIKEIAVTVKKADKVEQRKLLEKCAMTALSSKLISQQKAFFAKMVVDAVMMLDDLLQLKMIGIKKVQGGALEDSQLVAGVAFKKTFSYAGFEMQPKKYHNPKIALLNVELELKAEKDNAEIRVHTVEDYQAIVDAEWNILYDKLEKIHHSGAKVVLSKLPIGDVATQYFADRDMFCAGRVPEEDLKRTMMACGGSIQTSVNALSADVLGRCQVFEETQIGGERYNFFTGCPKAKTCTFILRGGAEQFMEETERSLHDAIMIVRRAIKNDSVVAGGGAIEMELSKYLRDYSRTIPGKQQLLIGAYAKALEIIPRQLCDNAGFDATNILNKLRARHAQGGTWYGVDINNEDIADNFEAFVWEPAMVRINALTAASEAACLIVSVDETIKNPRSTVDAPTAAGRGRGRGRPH

Measured: binding result

T4 sequence (P48643 whole entry): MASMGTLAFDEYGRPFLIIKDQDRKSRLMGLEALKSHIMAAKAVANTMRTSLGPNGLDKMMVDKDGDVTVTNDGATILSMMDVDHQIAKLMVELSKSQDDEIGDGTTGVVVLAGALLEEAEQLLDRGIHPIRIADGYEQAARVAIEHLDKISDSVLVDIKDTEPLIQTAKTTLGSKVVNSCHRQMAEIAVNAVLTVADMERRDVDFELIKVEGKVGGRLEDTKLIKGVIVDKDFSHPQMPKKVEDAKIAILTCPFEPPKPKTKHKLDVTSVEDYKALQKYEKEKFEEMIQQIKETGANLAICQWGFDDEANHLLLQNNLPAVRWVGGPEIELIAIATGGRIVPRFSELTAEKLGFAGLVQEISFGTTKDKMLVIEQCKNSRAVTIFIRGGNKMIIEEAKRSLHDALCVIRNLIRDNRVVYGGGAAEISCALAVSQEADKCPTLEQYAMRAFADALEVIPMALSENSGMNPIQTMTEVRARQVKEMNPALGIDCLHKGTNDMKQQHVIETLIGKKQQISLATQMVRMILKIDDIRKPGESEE

B1: β-tubulin (TUBB5) (natural protein, human (endogenous in HEK293F), UniProt P07437 1-444, looked up)
chain: MREIVHIQAGQCGNQIGAKFWEVISDEHGIDPTGTYHGDSDLQLDRISVYYNEATGGKYVPRAILVDLEPGTMDSVRSGPFGQIFRPDNFVFGQSGAGNNWAKGHYTEGAELVDSVLDVVRKEAESCDCLQGFQLTHSLGGGTGSGMGTLLISKIREEYPDRIMNTFSVVPSPKVSDTVVEPYNATLSVHQLVENTDETYCIDNEALYDICFRTLKLTTPTYGDLNHLVSATMSGVTTCLRFPGQLNADLRKLAVNMVPFPRLHFFMPGFAPLTSRGSQQYRALTVPELTQQVFDAKNMMAACDPRHGRYLTVAAVFRGRMSMKEVDEQMLNVQNKNSSYFVEWIPNNVKTAVCDIPPRGLKMAVTFIGNSTAIQELFKRISEQFTAMFRRKAFLHWYTGEGMDEMEFTEAESNMNDLVSEYQQYQDATAEEEEDFGEEAEEEA
notes: β-tubulin (TUBB5), human, endogenous; identified by MS and western blot; folding intermediate to near-natively folded, depending on the state of TRiC; also called substrate; source: endogenous, HEK293F cells, co-purified with TRiC
binds: all assays above
